# Test results from US20180002445A1 (published 2018).
# T1: membranous catalase of human tumor cells (MKN-45 gastric carcinoma, SHEP neuroblastoma) (human, UniProt P04040 2-527)
# T1 sequence (looked up): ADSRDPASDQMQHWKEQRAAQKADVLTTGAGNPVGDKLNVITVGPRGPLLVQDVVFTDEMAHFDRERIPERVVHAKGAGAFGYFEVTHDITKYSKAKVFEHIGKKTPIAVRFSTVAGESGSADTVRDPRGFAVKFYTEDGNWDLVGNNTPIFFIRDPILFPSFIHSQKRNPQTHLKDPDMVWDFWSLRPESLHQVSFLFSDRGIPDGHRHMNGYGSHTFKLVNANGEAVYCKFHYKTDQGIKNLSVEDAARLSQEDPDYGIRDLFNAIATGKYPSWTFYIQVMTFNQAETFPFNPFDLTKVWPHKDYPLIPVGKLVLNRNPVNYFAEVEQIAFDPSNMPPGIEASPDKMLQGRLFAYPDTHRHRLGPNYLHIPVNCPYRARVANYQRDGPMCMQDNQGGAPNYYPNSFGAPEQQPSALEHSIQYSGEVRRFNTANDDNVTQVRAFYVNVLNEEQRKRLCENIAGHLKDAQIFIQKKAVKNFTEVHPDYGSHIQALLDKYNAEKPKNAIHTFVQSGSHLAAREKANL
# T2: human catalase (human, UniProt P04040 2-527)
# T2 construct: Target of the ELISA by which the clones were selected
# T2 sequence (looked up): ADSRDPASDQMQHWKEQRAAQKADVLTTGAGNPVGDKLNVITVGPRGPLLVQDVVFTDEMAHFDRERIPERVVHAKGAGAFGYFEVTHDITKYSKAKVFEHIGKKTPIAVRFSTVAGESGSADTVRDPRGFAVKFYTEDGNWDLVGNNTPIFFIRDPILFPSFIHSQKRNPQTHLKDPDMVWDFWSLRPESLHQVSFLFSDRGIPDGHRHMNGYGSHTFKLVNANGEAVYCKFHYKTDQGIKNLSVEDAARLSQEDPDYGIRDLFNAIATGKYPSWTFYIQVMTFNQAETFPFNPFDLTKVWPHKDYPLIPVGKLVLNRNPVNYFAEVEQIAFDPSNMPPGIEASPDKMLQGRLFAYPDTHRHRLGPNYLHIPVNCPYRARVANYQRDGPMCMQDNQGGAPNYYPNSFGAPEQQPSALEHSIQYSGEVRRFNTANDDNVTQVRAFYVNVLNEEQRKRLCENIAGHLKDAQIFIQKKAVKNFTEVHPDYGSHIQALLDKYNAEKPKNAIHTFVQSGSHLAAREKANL
# B1: aSODcb0989 (VHH)
# VHH: QVQLVESGGGLVQSGGSLTLSCTASGFTISNYPMTWVRQAPGKGLEWVSRINSGGDRTLYADSVKGRFTVSRDNARNTMYLQMNNLKPEDTGLYFCADSGAGWRYWGQGTQVTVSS
# B2: aCATcb0972 (VHH)
# VHH: QVQLVESGGGLVQAGGSLRLSCAASERTFNTYGMGWFRQAPGKEREFVATISWSGDSTYYADSVKGRFTISRDNAKNTMYLQMNSLKPEDTAVYYCNANSEYGDSYWGQGTQVTVSS
# B3: aCATcb0973 (VHH)
# VHH: EVQLVESGGGLVQPGGSLRLSCAVSGFIFNTYSMRWGRQAPGKGLEWVSSISTGGYSTYADSVKGRFTISRDNAKNLVYLQMNSLKPEDTAVYYCGWGAFVRGERPQGQGTQVTVSS
# notes: Recombinant alpaca single domain VHH fragment against human catalase
# B4: aCATcb0974 (VHH)
# VHH: QVQLVESGGGLVQPGGSLRLSCAASGSIFSIASMGWYRQAPGKQRDLVATITSDGSTKYADSVKGRFTISRDNAKNTMYLQMNSVKPEDAAVYYCNADADDLEPGSYDYDYWGQGTQVTVSS
# notes: Recombinant alpaca single domain VHH fragment against human catalase; also called aCATcb9074
# B5: aSODcb0987 (VHH)
# VHH: QVQLVESGGGIVQPGGSLRLSCVASESISEIDAMYWHRQAPGKERELVAGITNDGTRYYADSVKGRFTISRDNAKSTLYLQMNSLKFEDTAMYYCAALPNPPPGYWGQGTQVTVSS
# notes: Recombinant alpaca single domain VHH fragment against human SOD1
# B6: aSODcb0991 (VHH)
# VHH: QVQLVESGGGIVQPGGSLRLSCVASESISDIDAMYWHRQAPGKRRELVAGITNDGTEYFADSVKGRFAISRDNTKSSLYLQMNSLKLEDTAMYYCATLPNPPPGYWGQGTQVTVSS
# B7: aCATcb0975 (VHH)
# VHH: QVQLVESGGGLVQPGGSLRLSCAASASIFSIYVMAWYRQAPGKQRELVATVTSGGATNYANSVKGRFTISRDNAKNTMDLQMNSLKPEDTAVYYCNAEDYYDYGLSRSKIYWGQGTQVTVSS
# notes: as for B3
# Legend:
# [1] = target: T3, membranous SOD of human tumor cells (MKN-45 gastric carcinoma, SHEP neuroblastoma) (human, UniProt P00441 2-154); assay: cell-based or functional assay
# [2] = target: T1, membranous catalase of human tumor …; assay: cell-based or functional assay
# [3] = target: T2, human catalase; assay: heading of the sequence table; ELISA selection
# [4] = target: T4, human SOD1 (human, UniProt P00441 2-154); assay: heading of the sequence table; ELISA selection
# T4 construct: Target of the ELISA by which the clones were selected; also called Cu/ZnSOD; superoxide dismutase
# [5] = target: T3, membranous SOD of human tumor cells …; assay: cell-based or functional assay; remark: listed apart in the source
# T3 sequence (P00441 2-154): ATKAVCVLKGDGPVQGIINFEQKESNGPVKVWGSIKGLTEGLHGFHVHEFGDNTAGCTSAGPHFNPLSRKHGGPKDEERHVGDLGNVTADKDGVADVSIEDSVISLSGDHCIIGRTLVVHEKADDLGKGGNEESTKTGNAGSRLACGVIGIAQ
# T4 sequence (P00441 2-154 limits assumed): as the sequence (P00441 2-154) above
binder,measurement,setting,value
B1,relation (molar basis) (against aCATaSOD),[1],2920 fold
same,relation to opt. conc. hybrid Fab (against aCATaSOD),[1],1460 fold
B2,relation (molar basis) (against aCATaSOD),[2],1420 fold
same,relation to opt. conc. hybrid Fab (against aCATaSOD),[2],708 fold
B3,binding result,[3],binds
B4,binding result,[3],binds
B5,binding result,[4],binds
B6,"concentration required for apoptosis induction in SHEP cells, against the neutralizing single domain VHH fragment",[5],1e+06 fold
B7,binding result,[3],binds
